Patent US20030073629
Positions count from the first letter of the chain named. In names and notes the source's numbering stands.

B1: Omi-deltaAVPS (C-terminal His6-tagged recombinant mature Omi with the AVPS motif deleted) (protein)
chain: PPPASPRSQYNFIADVVEKTAPAVVYIEILDRHPFLGREVPISNGSGFVVAADGLIVTNAHVVADRRRVRVRLLSGDTYEAVVTAVDPVADIATLRIQTKEPLPTLPLGRSADVRQGEFVVAMGSPFALQNTITSGIVSSAQRPARDLGLPQTNVEYIQTDAAIDFGNSGGPLVNLDGEVIGVNTMKVTAGISFAIPSDRLREFLHRGEKKNSSSGISGSQRRYIGVMMLTLSPSILAELQLREPSFPDVQHGVLIHKVILGSPAHRAGLRPGDVILAIGEQMVQNAEDVYEAVRTQSQLAVQIRRGRETLTLYVTPEVTEHHHHHH
B2: C-terminal His6-tagged recombinant wild type mature Omi (Omi lacking the first 133 residues) (protein)
chain: AVPSPPPASPRSQYNFIADVVEKTAPAVVYIEILDRHPFLGREVPISNGSGFVVAADGLIVTNAHVVADRRRVRVRLLSGDTYEAVVTAVDPVADIATLRIQTKEPLPTLPLGRSADVRQGEFVVAMGSPFALQNTITSGIVSSAQRPARDLGLPQTNVEYIQTDAAIDFGNSGGPLVNLDGEVIGVNTMKVTAGISFAIPSDRLREFLHRGEKKNSSSGISGSQRRYIGVMMLTLSPSILAELQLREPSFPDVQHGVLIHKVILGSPAHRAGLRPGDVILAIGEQMVQNAEDVYEAVRTQSQLAVQIRRGRETLTLYVTPEVTEHHHHHH
B3: Omi-S306A (C-terminal His6-tagged recombinant mature Omi, active site Ser306 to Ala) (protein)
chain: B2 chain with S173A

Target: XIAP, P98170
Sequence (P98170 whole entry): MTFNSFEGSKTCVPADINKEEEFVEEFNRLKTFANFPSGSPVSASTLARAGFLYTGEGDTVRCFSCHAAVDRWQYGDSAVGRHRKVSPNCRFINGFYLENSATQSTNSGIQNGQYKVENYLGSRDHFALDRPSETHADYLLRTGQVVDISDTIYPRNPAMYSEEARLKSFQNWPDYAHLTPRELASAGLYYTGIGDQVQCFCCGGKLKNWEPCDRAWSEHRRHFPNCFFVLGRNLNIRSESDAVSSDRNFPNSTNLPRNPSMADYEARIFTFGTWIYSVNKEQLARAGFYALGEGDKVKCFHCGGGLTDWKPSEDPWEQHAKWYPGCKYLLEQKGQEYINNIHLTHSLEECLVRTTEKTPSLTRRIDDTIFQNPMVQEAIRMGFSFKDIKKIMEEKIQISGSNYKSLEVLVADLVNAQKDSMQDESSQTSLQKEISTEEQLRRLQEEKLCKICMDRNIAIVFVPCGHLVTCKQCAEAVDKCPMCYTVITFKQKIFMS

Row | Protein | procaspase-3 activation in XIAP-containing S100 extracts stimulated with cytochrome c and dATP
1 | B1 | deletion of this motif abolished its caspase-promoting activity
2 | B2 | mature WT Omi or the S306A mutant were able to promote procaspase-3 activation in the XIAP-containing S100 extracts almost to the same extent as Smac
3 | B3 | mature WT Omi or the S306A mutant were able to promote procaspase-3 activation in the XIAP-containing S100 extracts almost to the same extent as Smac
